Among the data in publication PMC10130975 are stoichiometry N values, retold here.

This experiment concerns the target human glycerol kinase (His-GK) (human) (UniProt P32189). The experiment can be described thus: native gel or EMSA; native-PAGE without the denaturants of SDS-PAGE; purified His-GK ran at ~100 kDa, against ~55 kDa by 10% SDS-PAGE.

For “human glycerol kinase (His-GK) (from UniProt P32189 1-559) (enzyme)”, the stoichiometry N is 2.
